The supplement of paper PMC12042874
± gives the uncertainty stated by the source.

Assay: amyloid nucleation score (Sup35N fusion, yeast selection) (log enrichment); library NNK2; higher = more nucleation; inactive = no reads after selection
Summary of the method: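 Using DiMSum, nucleation scores were taken as the log enrichment of output over input reads, centred on the mode score of non-aggregating sequences. The input and output reads came from Illumina sequencing of plasmid inserts, with sequences under 100 input reads excluded. The yeast were psi-negative, expressed Sup35N fused to peptides of 20 random codons, were induced with 100 μM copper sulfate for 24 hours, and were grown 7 days at 30°C on medium lacking adenine and uracil.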

Substance | amyloid nucleation score
NLQRFSQPKIHRPNTMPLNV | inactive
RALEIALMLSTTCKSGFRRE | 5.56 ± 0.06
FNATIVDRDLRSRGQNRSLQ | 0.362 ± 0.65
GFVYYSVMVFLMLAFPYLRH | -1.59 ± 0.64
YRVCAYLAAKEFDSRHGGDA | 0.744 ± 0.37
VICCEVLPSAPLSLWMNLKV | -0.469 ± 1.1
SVGMKLRREEFGRSAVRAVL | 0.901 ± 0.28
CIRRESCIRICGGDCVCHRA | 2.97 ± 0.091
STILTSVFMFWVCGCFNNKT | 7.03 ± 0.078
IGLYGNANPMTGVHSHLLCG | -0.088 ± 0.54
GGDAQACVGHLSHKLCWLSV | 1.65 ± 0.16
INLNNFLVLLLCKHRVVWKQ | 1.48 ± 0.2
YDLGLKFNSHLATWGGFYHW | -0.746 ± 0.76
IVSSGPIKLNTSCFRTAYML | -0.854 ± 0.63
GGNTVSHQK | -0.427 ± 1.1
RVASVSYVSVWYEMCQCFRG | 9.503 ± 0.082
LICSHTLIRVYVKFF | 1.16 ± 0.3
GTVFCYLM | -1.05 ± 1
LSMTKVLFCTFEITSLSLYQ | -0.245 ± 0.62
LRVVIHPVRNAGCLGKYGAN | -0.509 ± 0.33
HMFPRWPFDVVKKDPTTTHL | 0.31 ± 0.41
IIPCRSLFAFNMMVM | 0.288 ± 0.53
LLFTLGNGGFSLRYKK | -0.265 ± 0.23

Substance | amyloid nucleation score
GKIRIENGLRGSLGDIRHNI | -0.623 ± 1
WYFIGKCRDGVSDGMRNNVR | 0.148 ± 0.22
MPPFGNDCTDREDVCMGRFV | inactive
RSLHFFTSMHMCGRCLNRLF | 0.048 ± 0.45
KSLDYFSECRDSPNML | -0.757 ± 0.48
HVAESHMS | 1.16 ± 0.43
NSTDSSFGKARYFLSNSYWV | inactive
IYRRPMENI | -0.389 ± 0.36
LMVTKLSCSCFCLFSVPRSQ | 0.783 ± 0.74
CCRGLIRMLDCCNYRRK | 3.75 ± 0.067
CYRHSERYRTSSLLSWERGP | 0.783 ± 0.57
IVARHPIGFQLVWGHWLTVA | 0.412 ± 0.26
FFYSGRGYTDKWHMGSLPRC | -0.964 ± 0.76
LAFRFDVLKWINA | -0.263 ± 0.27
SRNISQKLHTYMTYGSKVGY | -0.229 ± 0.32
VNSLSGHFFVFFRLLFTTMV | -1.1 ± 0.41
SSIDMSCQHHLVALIRGFKE | 2.24 ± 0.2
WKVVSEIWIMGTSSTFVTDH | 1.11 ± 0.12
RSALVGGRHNVVNWVRGSKM | 0.079 ± 0.55
AWLVLWDIAI | 0.583 ± 0.36
GEQVWCVGCPYVRWNSLHAG | 8.756 ± 0.037
EMCGATRG | 3.28 ± 0.085
SVSIPCNNCCRLLCRMFKLC | -0.716 ± 0.28

Substance | amyloid nucleation score
YSCMVFSLGRVMELSGHMFG | inactive
NFRGTVLLAR | 0.468 ± 0.74
YLLWSTVSAAFSDCRGLKYG | inactive
YVYSVYNFLRVLICAGTG | 6.185 ± 0.037
YYAGADFEGNSCGDSIPACR | -0.208 ± 1.1
SLILDNVDEGQSFSMGVCLG | 0.462 ± 0.66
NELEHVFLMRYKC | inactive
VWILSLAWLLPGYTCPFGPK | 4.801 ± 0.042
FLNHYWLYFQP | 5.353 ± 0.044
CQPNLWARVCLVWCYW | 3 ± 0.094
LTYILFGYFMASCFMCFFVS | 0.138 ± 1.1
RVNMDAGVLSVHLEAVGFHM | 4.08 ± 0.057
HDKAHLRTCVVFRLESSGG | 4.29 ± 0.085
SFFLFWRFCIGAW | -0.977 ± 0.63
VLRGPS | 0.302 ± 0.56
WGFIVDFILSGRRPAGYQLL | 0.309 ± 0.8
TRTLRDGVHVGEPLAVYWCC | 9.477 ± 0.028
ACLLLRSMFSKQRLTFR | -0.38 ± 0.76
YYLVYKAGKMLIEYHKSYNW | -1.1 ± 1
CVSVAFNRNISWW | -0.021 ± 0.34
AGELGLNIYVLSIYK | 5.26 ± 0.067
SLKTVAFHSEMFFCSTLVDM | 0.153 ± 0.8
